Biological target: first Tudor domain of PHF20L1 (PHF20L1 Tudor1) (UniProt A8MW92)
Assay: NMR titration

Sequence of UniProt A8MW92 (A8MW92 5-70): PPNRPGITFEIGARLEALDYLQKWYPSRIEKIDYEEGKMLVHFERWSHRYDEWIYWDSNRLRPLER

Question: For “K142 mono-methylated (K142me1) DNMT1 peptide”, which Kd is on record?
Answer: Its Kd is 670 µM.
